Test: Phase 1/2 MRZ + BEV and MRZ monotherapy in recurrent G4 MG: adverse events, DLT
Settings: for Ataxia: Treatment Related Grade ≥3 AE, # patients / Confusional State: Treatment Related Grade ≥3 AE, # patients / Delusion: Treatment Related Grade ≥3 AE, # patients / Dyspnea: Treatment Related Grade ≥3 AE, # patients / Embolism: Treatment Related Grade ≥3 AE, # patients / Fall: Treatment Related Grade ≥3 AE, # patients / Fatigue: Treatment Related Grade ≥3 AE, # patients / Hallucination: Treatment Related Grade ≥3 AE, # patients / Headache: Treatment Related Grade ≥3 AE, # patients / Hypertension: Treatment Related Grade ≥3 AE, # patients / Hyponatremia: Treatment Related Grade ≥3 AE, # patients / Insomnia: Treatment Related Grade ≥3 AE, # patients / Intracranial Hemorrhage: Treatment Related Grade ≥3 AE, # patients / Optic Nerve Disorder: Treatment Related Grade ≥3 AE, # patients / Proteinuria: Treatment Related Grade ≥3 AE, # patients: attributed to labelled agent
[1] = MRZ 0.7 mg/m^2 + BEV, Cohort 2, N = 3
[2] = MRZ 0.7 mg/m^2 Cohort 2 (N = 3)
[3] = MRZ 0.8 mg/m^2 + BEV, Cohorts 3 & 4, N = 27
[4] = MRZ 0.8 mg/m^2 + BEV, N = 27, related to the labelled drug
[5] = MRZ 0.8 mg/m^2 Cohorts 3 & 4 (N = 27)

Question: Which results are given for bevacizumab [reference compound]?
Answer: Confusional State, Treatment Related Grade ≥3 AE, patients [1]: 0; Delusion, Treatment Related Grade ≥3 AE, patients [1]: 0; Dyspnea, Treatment Related Grade ≥3 AE, patients [1]: 0; Embolism, Treatment Related Grade ≥3 AE, patients [1]: 0; Fall, Treatment Related Grade ≥3 AE, patients [1]: 0; Fatigue, Treatment Related Grade ≥3 AE, patients [1]: 0; Hallucination, Treatment Related Grade ≥3 AE, patients [1]: 0; Headache, Treatment Related Grade ≥3 AE, patients [1]: 0; Hypertension, Treatment Related Grade ≥3 AE, patients [1]: 1; Hyponatremia, Treatment Related Grade ≥3 AE, patients [1]: 0; Insomnia, Treatment Related Grade ≥3 AE, patients [1]: 0; Intracranial Hemorrhage, Treatment Related Grade ≥3 AE, patients [1]: 0; Optic Nerve Disorder, Treatment Related Grade ≥3 AE, patients [1]: 0; Proteinuria, Treatment Related Grade ≥3 AE, patients [1]: 1; Ataxia, Treatment Related Grade ≥3 AE, patients (MRZ 0.7 mg/m^2 + BEV, Cohort 2, N = 3, related to the labelled drug): 0; Ataxia: Treatment Related Grade ≥3 AE, # patients [2]: 0; Confusional State: Treatment Related Grade ≥3 AE, # patients [2]: 0; Delusion: Treatment Related Grade ≥3 AE, # patients [2]: 0; Dyspnea: Treatment Related Grade ≥3 AE, # patients [2]: 0; Embolism: Treatment Related Grade ≥3 AE, # patients [2]: 0; Fall: Treatment Related Grade ≥3 AE, # patients [2]: 0; Fatigue: Treatment Related Grade ≥3 AE, # patients [2]: 0; Hallucination: Treatment Related Grade ≥3 AE, # patients [2]: 0; Headache: Treatment Related Grade ≥3 AE, # patients [2]: 0; Hypertension: Treatment Related Grade ≥3 AE, # patients [2]: 1; Hyponatremia: Treatment Related Grade ≥3 AE, # patients [2]: 0; Insomnia: Treatment Related Grade ≥3 AE, # patients [2]: 0; Intracranial Hemorrhage: Treatment Related Grade ≥3 AE, # patients [2]: 0; Optic Nerve Disorder: Treatment Related Grade ≥3 AE, # patients [2]: 0; Proteinuria: Treatment Related Grade ≥3 AE, # patients [2]: 1; Fatigue, treatment-related AE, patients (MRZ 0.8 mg/m^2 + BEV Cohorts 3 & 4, N = 27, related to the labelled drug (MRZ + BEV = related to both)): 18 (66.7%); Confusional State, Treatment Related Grade ≥3 AE, patients [3]: 0; Delusion, Treatment Related Grade ≥3 AE, patients [3]: 0; Dyspnea, Treatment Related Grade ≥3 AE, patients [3]: 1; Embolism, Treatment Related Grade ≥3 AE, patients [3]: 1; Fall, Treatment Related Grade ≥3 AE, patients [3]: 0; Fatigue, Treatment Related Grade ≥3 AE, patients [3]: 1; Hallucination, Treatment Related Grade ≥3 AE, patients [3]: 0; Headache, Treatment Related Grade ≥3 AE, patients [3]: 1; Hypertension, Treatment Related Grade ≥3 AE, patients [3]: 5; Hyponatremia, Treatment Related Grade ≥3 AE, patients [3]: 0; Insomnia, Treatment Related Grade ≥3 AE, patients [3]: 0; Intracranial Hemorrhage, Treatment Related Grade ≥3 AE, patients [3]: 1; Optic Nerve Disorder, Treatment Related Grade ≥3 AE, patients [3]: 1; Proteinuria, Treatment Related Grade ≥3 AE, patients [3]: 0; Ataxia, Treatment Related Grade ≥3 AE, patients (MRZ 0.8 mg/m^2 + BEV, Cohorts 3 & 4, N = 27, related to the labelled drug): 0; Anaemia, treatment-related AE, patients [4]: 0 (0.0%); Ataxia, treatment-related AE, patients [4]: 0 (0.0%); Confusional state, treatment-related AE, patients [4]: 1 (3.7%); Constipation, treatment-related AE, patients [4]: 1 (3.7%); Diarrhoea, treatment-related AE, patients [4]: 1 (3.7%); Dizziness, treatment-related AE, patients [4]: 1 (3.7%); Dysphonia, treatment-related AE, patients [4]: 10 (37.0%); Epistaxis, treatment-related AE, patients [4]: 7 (25.9%); Fall, treatment-related AE, patients [4]: 0 (0.0%); Hallucination, treatment-related AE, patients [4]: 0 (0.0%); Headache, treatment-related AE, patients [4]: 6 (22.2%); Infusion site pain, treatment-related AE, patients [4]: 1 (3.7%); Muscular weakness, treatment-related AE, patients [4]: 1 (3.7%); Platelet count decreased, treatment-related AE, patients [4]: 3 (11.1%); Upper-airway cough syndrome, treatment-related AE, patients [4]: 5 (18.5%); Ataxia: Treatment Related Grade ≥3 AE, # patients [5]: 0; Confusional State: Treatment Related Grade ≥3 AE, # patients [5]: 0; Delusion: Treatment Related Grade ≥3 AE, # patients [5]: 0; Dyspnea: Treatment Related Grade ≥3 AE, # patients [5]: 1; Embolism: Treatment Related Grade ≥3 AE, # patients [5]: 1; Fall: Treatment Related Grade ≥3 AE, # patients [5]: 0; Fatigue: Treatment Related Grade ≥3 AE, # patients [5]: 1; Hallucination: Treatment Related Grade ≥3 AE, # patients [5]: 0; Headache: Treatment Related Grade ≥3 AE, # patients [5]: 1; Hypertension: Treatment Related Grade ≥3 AE, # patients [5]: 5; Hyponatremia: Treatment Related Grade ≥3 AE, # patients [5]: 0; Insomnia: Treatment Related Grade ≥3 AE, # patients [5]: 0; Intracranial Hemorrhage: Treatment Related Grade ≥3 AE, # patients [5]: 1; Optic Nerve Disorder: Treatment Related Grade ≥3 AE, # patients [5]: 1; Proteinuria: Treatment Related Grade ≥3 AE, # patients [5]: 0; Anaemia: # pts, related to BEV (MRZ+BEV, 12 Sep. 2016): 0; Anxiety: # pts, related to BEV (MRZ+BEV, 12 Sep. 2016): 0; Aphasia: # pts, related to BEV (MRZ+BEV, 12 Sep. 2016): 0; Appendicitis Perforated: # pts, related to BEV (MRZ+BEV, 12 Sep. 2016): 0; Asthenia: # pts, related to BEV (MRZ+BEV, 12 Sep. 2016): 0; Ataxia: # pts, related to BEV (MRZ+BEV, 12 Sep. 2016): 0; Confusional State: # pts, related to BEV (MRZ+BEV, 12 Sep. 2016): 0; Constipation: # pts, related to BEV (MRZ+BEV, 12 Sep. 2016): 0; Convulsion: # pts, related to BEV (MRZ+BEV, 12 Sep. 2016): 0; Delusion: # pts, related to BEV (MRZ+BEV, 12 Sep. 2016): 0; Depressed Level of Consciousness: # pts, related to BEV (MRZ+BEV, 12 Sep. 2016): 0; Diarrhoea: # pts, related to BEV (MRZ+BEV, 12 Sep. 2016): 0; Dizziness: # pts, related to BEV (MRZ+BEV, 12 Sep. 2016): 0; Dysarthria: # pts, related to BEV (MRZ+BEV, 12 Sep. 2016): 0; Dysphagia: # pts, related to BEV (MRZ+BEV, 12 Sep. 2016): 0; Dysphonia: # pts, related to BEV (MRZ+BEV, 12 Sep. 2016): 10; Dyspnoea: # pts, related to BEV (MRZ+BEV, 12 Sep. 2016): 0

Reference: patent US10894036B2, “Use of marizomib for the treatment of central nervous system (CNS) cancers” (Celgene International II Sàrl, priority 2016, dated 2021)
